Measured values reported in US20240182536A1 (MURAL ONCOLOGY, published 2024).
Changes are numbered by the printed parent chain. Numbers in names are those of the source.

T1: IL-18 receptors on HEK-Blue IL-18 reporter cells (UniProt Q13478 19-541; O95256 20-599, limits assumed)
T1 sequence (looked up) 1: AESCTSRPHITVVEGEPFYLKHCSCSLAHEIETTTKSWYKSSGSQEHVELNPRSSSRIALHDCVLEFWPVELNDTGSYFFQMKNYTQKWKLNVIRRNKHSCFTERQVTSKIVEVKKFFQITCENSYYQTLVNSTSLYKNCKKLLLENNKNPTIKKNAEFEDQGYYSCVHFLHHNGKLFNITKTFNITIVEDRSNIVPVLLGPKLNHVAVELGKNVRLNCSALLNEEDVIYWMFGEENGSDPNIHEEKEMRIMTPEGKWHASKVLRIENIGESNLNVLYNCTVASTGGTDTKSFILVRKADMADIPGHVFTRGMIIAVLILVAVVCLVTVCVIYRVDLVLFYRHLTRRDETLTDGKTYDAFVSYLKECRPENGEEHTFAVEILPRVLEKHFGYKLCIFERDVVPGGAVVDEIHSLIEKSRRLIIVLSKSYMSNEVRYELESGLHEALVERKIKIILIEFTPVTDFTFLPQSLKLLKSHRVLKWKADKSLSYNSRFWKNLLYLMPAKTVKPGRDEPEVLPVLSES
T1 sequence (looked up) 2: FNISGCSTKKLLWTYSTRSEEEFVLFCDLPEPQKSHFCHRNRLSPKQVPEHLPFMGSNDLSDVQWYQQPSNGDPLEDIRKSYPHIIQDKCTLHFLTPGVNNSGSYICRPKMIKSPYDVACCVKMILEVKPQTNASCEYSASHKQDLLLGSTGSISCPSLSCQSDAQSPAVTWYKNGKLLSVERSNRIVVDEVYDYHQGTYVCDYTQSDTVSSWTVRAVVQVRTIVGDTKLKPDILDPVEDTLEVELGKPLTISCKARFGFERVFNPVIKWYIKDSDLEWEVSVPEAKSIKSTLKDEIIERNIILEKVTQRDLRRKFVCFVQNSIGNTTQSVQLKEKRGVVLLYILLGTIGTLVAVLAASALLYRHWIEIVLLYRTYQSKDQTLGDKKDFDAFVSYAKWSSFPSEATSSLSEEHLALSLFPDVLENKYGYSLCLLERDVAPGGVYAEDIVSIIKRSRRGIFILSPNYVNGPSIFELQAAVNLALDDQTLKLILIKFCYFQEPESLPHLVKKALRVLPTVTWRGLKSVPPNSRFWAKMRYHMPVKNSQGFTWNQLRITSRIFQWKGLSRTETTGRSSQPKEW

T2: interleukin 18 binding protein (IL-18BP) (UniProt O95998 31-194)
T2 sequence (looked up): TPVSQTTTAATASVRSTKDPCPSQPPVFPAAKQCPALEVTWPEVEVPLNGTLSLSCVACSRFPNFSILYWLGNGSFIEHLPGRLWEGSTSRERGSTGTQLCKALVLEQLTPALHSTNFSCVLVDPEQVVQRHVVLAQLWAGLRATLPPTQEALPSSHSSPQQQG

B1: IL-18 variant K53S, S55F, T63S, R104K, H109Y (ligand)
chain: YFGKLESKLSVIRNLNDQVLFIDQGNRPLFEDMTDSDMRDNAPRTIFIISMYSDFQPRGMAVSISVKSEKISTLSSENKIISFKEMNPPDNIKDTKSDIIFFQKSVPGYDNKMQFESSSYEGYFLASEKERDLFKLILKKEDELGDRSIMFTVQNED
B2: IL-18 variant S36W, D37E, D40F, N41I, K53D, S55N (ligand)
chain: B1 chain with S36W, D37E, D40F, N41I, S53D, F55N, S63T, K104R, Y109H
B3: IL-18 variant K53H, S55G (ligand)
chain: B1 chain with S53H, F55G, S63T, K104R, Y109H
B4: IL-18 variant K53T, S55G, P107A, H109Q (ligand)
chain: B1 chain with S53T, F55G, S63T, K104R, P107A, Y109Q
B5: IL-18 variant K53L, S55G (ligand)
chain: B1 chain with S53L, F55G, S63T, K104R, Y109H
B6: IL-18 variant K53H, S55Y, Q56H (ligand)
chain: B1 chain with S53H, F55Y, Q56H, S63T, K104R, Y109H
B7: IL-18 variant K53N, S55H, H109F (ligand)
chain: B1 chain with S53N, F55H, S63T, K104R, Y109F
B8: IL-18 variant K53H, S55M, T63S (ligand)
chain: B1 chain with S53H, F55M, K104R, Y109H
B9: IL-18 variant K53G, S55V, R104Y, H109N (ligand)
chain: B1 chain with S53G, F55V, S63T, K104Y, Y109N
B10: IL-18 variant K53D, S55T, H109I (ligand)
chain: B1 chain with S53D, F55T, S63T, K104R, Y109I
B11: IL-18 variant K53H, S55M (ligand)
chain: B1 chain with S53H, F55M, S63T, K104R, Y109H
B12: IL-18 variant K53D, S55E (ligand)
chain: B1 chain with S53D, F55E, S63T, K104R, Y109H
B13: IL-18 variant K53D, S55N, H109I (ligand)
chain: B1 chain with S53D, F55N, S63T, K104R, Y109I

Biological target: T1, IL-18 receptors on HEK-Blue IL-18 …
Test: cell-based or functional assay

Binder	HEK-Blue activity, No BP, DF-10000	HEK-Blue activity, No BP, DF-100,000	HEK-Blue activity, No BP, DF-1,000,000
B1	0.14	0.09	0.09
B2	0.13	0.14	0.13
B3	0.13	0.1	0.08
B4	0.13	0.1	0.11
B5	0.12	0.1	0.09
B6	0.12	0.1	0.09
B7	0.13	0.1	0.1
B8	0.13	0.1	0.09
B9	0.13	0.12	0.1
B10	0.13	0.09	0.08
B11	0.13	0.1	0.09
B12	0.13	0.09	0.09
B13	0.13	0.12	0.09

Biological target: T2, interleukin 18 binding protein (IL-18BP)
Test: cell-based or functional assay

Binder	HEK-Blue activity, +100 nM BP, DF-10000	HEK-Blue activity, +100 nM BP, DF-100,000	HEK-Blue activity, +100 nM BP, DF-1,000,000	Ratio (-BP/+BP), DF-10000	Ratio (-BP/+BP), DF-100,000	Ratio (-BP/+BP), DF-1,000,000
B1	0.13	0.09	0.09	1.03	1	0.99
B2	0.2	0.13	0.12	0.68	1.07	1.05
B3	0.12	0.09	0.08	1.08	1.04	1.02
B4	0.12	0.16	0.12	1.1	0.63	0.87
B5	0.14	0.11	0.11	0.87	0.92	0.89
B6	0.12	0.09	0.09	1.05	1.03	0.96
B7	0.11	0.09	0.09	1.17	1.06	1.17
B8	0.18	0.12	0.11	0.72	0.83	0.83
B9	0.11	0.14	0.1	1.17	0.9	1.02
B10	0.12	0.09	0.09	1.1	0.97	0.98
B11	0.12	0.09	0.09	1.12	1.03	1.09
B12	0.11	0.09	0.08	1.22	1.07	1.08
B13	0.1	0.09	0.09	1.28	1.42	0.99
